B1: NRC3_wobSeed10_DR0_A9C_o1 (dsDNA)
DNA 1: GCATCGAACGGTCGAGGTGAGTATAGAGAAAGGGAAGCGATTGACAGCGTAGAATGAAGG
DNA 2: CCTTCATTCTACGCTGTCAATCGCTTCCCTTTCTCTATACTCACCTCGACCGTTCGATGC
B2: NRC3_wobSeed36_DR1_C4G_o1 (dsDNA)
DNA 1: GCCGGACTGGGGCAAAGGTTACCATACTCAGTACGAGCGATTGACAGCGTAGAATGAAGG
DNA 2: CCTTCATTCTACGCTGTCAATCGCTCGTACTGAGTATGGTAACCTTTGCCCCAGTCCGGC
B3: NRC3_wobSeed32_DR1_G18C_o1 (dsDNA)
DNA 1: GCTCTTGTAGATCAAAGCTTAAGAAAGCCGAAGCCTGCGATTGACAGCGTAGAATGAAGG
DNA 2: CCTTCATTCTACGCTGTCAATCGCAGGCTTCGGCTTTCTTAAGCTTTGATCTACAAGAGC
B4: NRC3_wobSeed50_DR2_A22C_o1 (dsDNA)
DNA 1: GCCCTAGTTGGTCAGGAGGTCCCACACCGGATATGAGCGATTGACAGCGTAGAATGAAGG
DNA 2: CCTTCATTCTACGCTGTCAATCGCTCATATCCGGTGTGGGACCTCCTGACCAACTAGGGC
B5: NRC3_random_hg19_453_o1 (dsDNA)
DNA 1: GCATGATCATGGCTCACTGCAGCCTCGACCTCCAGAGCGATTGACAGCGTAGAATGAAGG
DNA 2: CCTTCATTCTACGCTGTCAATCGCTCTGGAGGTCGAGGCTGCAGTGAGCCATGATCATGC
B6: NRC3_wobSeed13_DR0_G10C_o1 (dsDNA)
DNA 1: GCCGTCCAACGTCAAGGTCAGTGAAAGAGACTCGAAGCGATTGACAGCGTAGAATGAAGG
DNA 2: CCTTCATTCTACGCTGTCAATCGCTTCGAGTCTCTTTCACTGACCTTGACGTTGGACGGC
B7: NRC3_wobSeed41_DR1_T23G_o1 (dsDNA)
DNA 1: GCATATGTAGGTTAAGGGTCATGCAGGTTGGTTCGCGCGATTGACAGCGTAGAATGAAGG
DNA 2: CCTTCATTCTACGCTGTCAATCGCGCGAACCAACCTGCATGACCCTTAACCTACATATGC
B8: NRC3_random_hg19_481_o1 (dsDNA)
DNA 1: GCCCTTCTTAGTATCTGGGACAACAGGTGTGTGCTAGCGATTGACAGCGTAGAATGAAGG
DNA 2: CCTTCATTCTACGCTGTCAATCGCTAGCACACACCTGTTGTCCCAGATACTAAGAAGGGC
B9: NRC3_random_hg19_85_o1 (dsDNA)
DNA 1: GCTGGCTGGCACCTGTGTTCCAACAACTTGAGAGAGGCGATTGACAGCGTAGAATGAAGG
DNA 2: CCTTCATTCTACGCTGTCAATCGCCTCTCTCAAGTTGTTGGAACACAGGTGCCAGCCAGC
B10: NRC3_random_hg19_164_o1 (dsDNA)
DNA 1: GCCATGAGGACCTGCAGCGCAATGACCTCCGAGGCAGCGATTGACAGCGTAGAATGAAGG
DNA 2: CCTTCATTCTACGCTGTCAATCGCTGCCTCGGAGGTCATTGCGCTGCAGGTCCTCATGGC
B11: NRC3_wobSeed33_DR1_A16T_o1 (dsDNA)
DNA 1: GCATCTCTAGGTAAATGTTCAGTGAATCCCGAGGATGCGATTGACAGCGTAGAATGAAGG
DNA 2: CCTTCATTCTACGCTGTCAATCGCATCCTCGGGATTCACTGAACATTTACCTAGAGATGC
B12: NRC3_wobSeed64_DR2_C13G_o1 (dsDNA)
DNA 1: GCTAGCCTAGGTGATTGGGCCAGTATAGTACGCATCGCGATTGACAGCGTAGAATGAAGG
DNA 2: CCTTCATTCTACGCTGTCAATCGCGATGCGTACTATACTGGCCCAATCACCTAGGCTAGC
B13: NRC3_wobSeed76_DR3_A18C_o1 (dsDNA)
DNA 1: GCCCTACTGGGCCAAAACGGTCATTGATGCCGATAAGCGATTGACAGCGTAGAATGAAGG
DNA 2: CCTTCATTCTACGCTGTCAATCGCTTATCGGCATCAATGACCGTTTTGGCCCAGTAGGGC
B14: NRC3_wobSeed125_DR5_G11T_o1 (dsDNA)
DNA 1: GCCCTTACGGTTCACTGACAGGTTATAGCATTTGGAGCGATTGACAGCGTAGAATGAAGG
DNA 2: CCTTCATTCTACGCTGTCAATCGCTCCAAATGCTATAACCTGTCAGTGAACCGTAAGGGC
B15: NRC3_wobSeed135_DR5_A14C_o1 (dsDNA)
DNA 1: GCCGAACTAGGTCCTTGACAGGACAGTGAATAGTAAGCGATTGACAGCGTAGAATGAAGG
DNA 2: CCTTCATTCTACGCTGTCAATCGCTTACTATTCACTGTCCTGTCAAGGACCTAGTTCGGC
B16: NRC3_wobSeed72_DR2_G11C_o1 (dsDNA)
DNA 1: GCTCGAGTAGCTTACGGGGGCATTCAGGGATGAAGAGCGATTGACAGCGTAGAATGAAGG
DNA 2: CCTTCATTCTACGCTGTCAATCGCTCTTCATCCCTGAATGCCCCCGTAAGCTACTCGAGC
B17: NRC3_random_hg19_11_o1 (dsDNA)
DNA 1: GCTGAGTCAGAACCACCCAGCTAAGCCACCATCAAAGCGATTGACAGCGTAGAATGAAGG
DNA 2: CCTTCATTCTACGCTGTCAATCGCTTTGATGGTGGCTTAGCTGGGTGGTTCTGACTCAGC
B18: NRC3_wobSeed38_DR1_T12A_o1 (dsDNA)
DNA 1: GCCCTGCTAGGACAATGGTCAGCTAAAGCAGCTCGCGCGATTGACAGCGTAGAATGAAGG
DNA 2: CCTTCATTCTACGCTGTCAATCGCGCGAGCTGCTTTAGCTGACCATTGTCCTAGCAGGGC
B19: NRC3_wobSeed4_DR0_G17C_o1 (dsDNA)
DNA 1: GCCCTACTGGGCCAAGCTCATTGATCAGTCAAAGCAGCGATTGACAGCGTAGAATGAAGG
DNA 2: CCTTCATTCTACGCTGTCAATCGCTGCTTTGACTGATCAATGAGCTTGGCCCAGTAGGGC
B20: NRC3_random_hg19_181_o1 (dsDNA)
DNA 1: GCGCAGCATTTGTGTGCATGTATGCTGTGTGTATGCGCGATTGACAGCGTAGAATGAAGG
DNA 2: CCTTCATTCTACGCTGTCAATCGCGCATACACACAGCATACATGCACACAAATGCTGCGC
B21: NRC3_random_hg19_211_o1 (dsDNA)
DNA 1: GCATCACTATTCCCAACTTCAGGAGTAACCAGTATTGCGATTGACAGCGTAGAATGAAGG
DNA 2: CCTTCATTCTACGCTGTCAATCGCAATACTGGTTACTCCTGAAGTTGGGAATAGTGATGC
B22: NRC3_wobSeed63_DR2_G11C_o1 (dsDNA)
DNA 1: GCCGAACTAGCTCACCAGGACAGTGAAGAGGTTGGAGCGATTGACAGCGTAGAATGAAGG
DNA 2: CCTTCATTCTACGCTGTCAATCGCTCCAACCTCTTCACTGTCCTGGTGAGCTAGTTCGGC
B23: NRC3_random_hg19_493_o1 (dsDNA)
DNA 1: GCGCCTAGCAGTCTATACAATTCTGAAGGATGCACCGCGATTGACAGCGTAGAATGAAGG
DNA 2: CCTTCATTCTACGCTGTCAATCGCGGTGCATCCTTCAGAATTGTATAGACTGCTAGGCGC

In the data set the target is PPARg:RXRa (Homo sapiens, UniProt P37231;P19793 full;full). The data set is described as follows: no ligand; PBM; 180 nM : 90 nM RXRa; PBS pH 7.4, 2% milk, 0.02% Triton X-100, 1 mM DTT, BSA, 0.4 mg/ml salmon testes DNA. Conditions: tags: His kept;His cleaved; copies: 1;1; label: surface-attached array probe.
Sequence of PPARg:RXRa (P37231 29-505, chain 1 of 2): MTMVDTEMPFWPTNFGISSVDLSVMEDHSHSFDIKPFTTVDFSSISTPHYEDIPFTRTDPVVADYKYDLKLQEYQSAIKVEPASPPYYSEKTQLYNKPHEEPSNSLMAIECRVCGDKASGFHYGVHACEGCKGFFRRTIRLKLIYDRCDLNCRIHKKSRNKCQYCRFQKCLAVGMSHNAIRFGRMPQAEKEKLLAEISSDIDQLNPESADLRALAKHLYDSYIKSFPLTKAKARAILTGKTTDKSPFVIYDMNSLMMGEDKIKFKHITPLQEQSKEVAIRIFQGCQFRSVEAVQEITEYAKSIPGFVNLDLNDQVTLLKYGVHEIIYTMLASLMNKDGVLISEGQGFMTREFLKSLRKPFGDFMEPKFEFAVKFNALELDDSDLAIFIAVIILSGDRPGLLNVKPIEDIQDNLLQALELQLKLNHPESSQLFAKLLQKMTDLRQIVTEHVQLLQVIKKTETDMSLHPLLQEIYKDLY
Sequence of PPARg:RXRa (P19793 whole entry, chain 2 of 2): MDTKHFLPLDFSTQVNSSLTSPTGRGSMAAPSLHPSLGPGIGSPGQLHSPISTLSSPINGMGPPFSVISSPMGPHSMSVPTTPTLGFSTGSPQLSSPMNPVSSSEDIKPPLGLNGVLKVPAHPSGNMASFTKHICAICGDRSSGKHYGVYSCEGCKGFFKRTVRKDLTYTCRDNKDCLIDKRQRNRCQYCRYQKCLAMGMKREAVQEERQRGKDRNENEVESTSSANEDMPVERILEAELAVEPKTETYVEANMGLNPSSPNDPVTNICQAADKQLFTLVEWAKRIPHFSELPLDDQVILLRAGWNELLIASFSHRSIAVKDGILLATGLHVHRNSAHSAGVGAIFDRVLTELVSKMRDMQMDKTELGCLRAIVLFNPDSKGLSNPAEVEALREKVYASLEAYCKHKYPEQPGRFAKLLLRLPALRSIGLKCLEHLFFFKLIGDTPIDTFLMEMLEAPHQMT
Take B1: the binding signal is 0.48 PBM z-score against 500 random probes.

As to B2, the binding signal is 12.2 PBM z-score against 500 random probes.

Turning to B3, the binding signal is -0.29 PBM z-score against 500 random probes. With B4 the figure was 0.46 PBM z-score against 500 random probes; with B5, 0.09 PBM z-score against 500 random probes; with B6, 0.38 PBM z-score against 500 random probes. With B7, the binding signal is 12.4 PBM z-score against 500 random probes.

On to B8, for which the binding signal is 0.31 PBM z-score against 500 random probes.

Consider B9, for which the binding signal is -0.09 PBM z-score against 500 random probes. With B10, the binding signal was 0.42 PBM z-score against 500 random probes.

Take B11: the binding signal is 0.4 PBM z-score against 500 random probes. Next, B12: 0.42 PBM z-score against 500 random probes; B13: 0.35 PBM z-score against 500 random probes; B14: 0.49 PBM z-score against 500 random probes. Next, B15: 0.43 PBM z-score against 500 random probes; B16: 0.35 PBM z-score against 500 random probes. With B17 the figure was -0.05 PBM z-score against 500 random probes. As for B18, the binding signal is 0.3 PBM z-score against 500 random probes. With B19 the figure was 0.05 PBM z-score against 500 random probes; with B20, -0.13 PBM z-score against 500 random probes. Next, B21: 0.12 PBM z-score against 500 random probes; B22: 0.17 PBM z-score against 500 random probes. With B23 the figure was 0.38 PBM z-score against 500 random probes.

The values are drawn from article PMC6555819, “Comprehensive study of nuclear receptor DNA binding provides a revised framework for understanding receptor specificity”.
